The source of these data is patent US20170183403A1.

Assay [1] concerns the target T1, Reference peptide no. 10.
T1 sequence (peptide): INNYKNPKLTRMLTF
Nature of the assay: peptide microarray (RepliTope).

For assay [2], the target named is T2, Reference peptide no. 11.
T2 sequence (peptide): YKNPKLTRMLTFKFY
Nature of the assay: peptide microarray (RepliTope).

Assay [3] has as its target T3, Reference peptide no. 12.
T3 sequence (peptide): PKLTRMLTFKFYMPK
Nature of the assay: peptide microarray (RepliTope).

Assay [4] concerns the target T4, Reference peptide no. 13.
T4 sequence (peptide): TRMLTFKFYMPKKAT
Nature of the assay: peptide microarray (RepliTope).

The target in the next assay is T5, Reference peptide no. 22.
T5 sequence (peptide): KPLEEVLNLAQSKNF
Nature of the assay: peptide microarray (RepliTope).

A further assay addresses T6, Reference peptide no. 23.
T6 sequence (peptide): EEVLNLAQSKNFHLR
Description: peptide microarray (RepliTope).

A further assay deals with T7, Reference peptide no. 24.
T7 sequence (peptide): LNLAQSKNFHLRPRD
Nature of the assay: peptide microarray (RepliTope).

For the next assay, the target named is T8, Reference peptide no. 25.
T8 sequence (peptide): AQSKNFHLRPRDLIS
Nature of the assay: peptide microarray (RepliTope).

The target in a further assay is T9, Reference peptide no. 26.
T9 sequence (peptide): KNFHLRPRDLISNIN
Nature of the assay: peptide microarray (RepliTope).

For assay [5], the target named is T1, Reference peptide no. 10. Description: peptide microarray (RepliTope), Ala mutagenesis set.
Assay [6] deals with T2, Reference peptide no. 11. The assay is described as above.
In assay [7] the target is T3, Reference peptide no. 12. The description is as above.
Assay [8] has as its target T4, Reference peptide no. 13. The description is as above.
Another assay deals with T10, Reference peptide no. 42.
T10 sequence (peptide): INNYKNPKLTRMLTA
Described as above.

For a further assay, the target named is T11, Reference peptide no. 43.
T11 sequence (peptide): YKNPKLTRMLTAKFY
The assay is described as above.

The target in the next assay is T12, Reference peptide no. 44.
T12 sequence (peptide): PKLTRMLTAKFYMPK
The assay is described as above.

The next assay concerns the target T13, Reference peptide no. 45.
T13 sequence (peptide): TRMLTAKFYMPKKAT
The assay is described as above.

Another assay deals with T14, Reference peptide no. 47.
T14 sequence (peptide): YKNPKLTRMLTFKFA
The assay is described as above.

For a further assay, the target named is T15, Reference peptide no. 48.
T15 sequence (peptide): PKLTRMLTFKFAMPK
The assay is described as above.

In a further assay the target is T16, Reference peptide no. 49.
T16 sequence (peptide): TRMLTFKFAMPKKAT
The description is as above.

For another assay, the target named is T17, Reference peptide no. 52.
T17 sequence (peptide): YKNPKLTRMLTAKFA
Described as above.

The target of assay [9] is Reference peptide no. 53. Described as above.
Assay [10] concerns the target Reference peptide no. 54. Described as above.
A further assay deals with murine IL-2 (mouse) (UniProt P04351). Description: SPR, MAB602 amine-coupled on chip, mIL-2 at 1 nM or more. On the technique in general: Surface plasmon resonance follows binding to a sensor surface in real time, without labels.
Sequence of murine IL-2 (mouse) (P04351 21-169 limits assumed): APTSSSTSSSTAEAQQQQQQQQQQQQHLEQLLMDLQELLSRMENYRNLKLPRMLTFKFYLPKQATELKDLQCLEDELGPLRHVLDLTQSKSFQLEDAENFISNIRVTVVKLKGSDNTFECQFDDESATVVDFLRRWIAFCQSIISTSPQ
For assay [11], the target named is human interleukin-2 (human) (UniProt P60568). Description: SPR, antibody amine-coupled on GLM chip, hIL-2 in solution.
Sequence of human interleukin-2 (human) (P60568 21-153 limits assumed): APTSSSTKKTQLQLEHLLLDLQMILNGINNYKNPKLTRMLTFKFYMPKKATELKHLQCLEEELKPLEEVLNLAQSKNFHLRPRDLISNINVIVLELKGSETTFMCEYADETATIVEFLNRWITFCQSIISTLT
Assay [12] has the same target. Description: sandwich ELISA, biotinylated MAB602 on hIL-2 captured by coated 5344, no competitor. For orientation: ELISA stands for enzyme-linked immunosorbent assay.
Assay [13] concerns the target Reference peptide no. 53. Nature of the assay: peptide microarray (RepliTope), Ala mutagenesis set. The source holds these as a separate data set.
For assay [14], the target named is Reference peptide no. 54. Described as above. The source holds these as a separate data set.

Read-outs that look alike come from different tables or passages of the source. A value given as a limit tells only on which side of the number the result lay.

Broadly, the Kd is the concentration at which binding is half-saturated. A lower Kd goes with higher affinity. For orientation: koff means the rate constant with which the complex falls apart. Low values mean slow dissociation, high ones fast dissociation.

B1: MAB602 (antibody, from another filing, IgG2a, V domains shown)
VH: EVQLQESGPGLVAPSQSLSITCTVSGFSLTNYDISWIRQPPGKGLEWLGVIWTGGGTNYNSGFMSRLSITKDNSKSQVFLKMNSLQTDDTAIYYCVRQGRTPYWGQGTLVTVSA
VL: DIQVTQSPSSLSVSLGDRVTITCKASKDIYNRLAWYQQKPGNAPRLLISGATSLETGVPSRFSGSGSGKDYTLTITSLQTEDVATYYCQQFWGTPYTFGGGTKLEIKR
For B1, the signal intensity after subtraction of control signal was found to be 46000 AU with Reference peptide no. 10 [1]; 49700 AU in the assay with Reference peptide no. 11 [2]; 28800 AU in the assay with Reference peptide no. 12 [3]; 5250 AU with Reference peptide no. 13 [4]; 5000 AU in the assay with Reference peptide no. 22; 13300 AU in the assay with Reference peptide no. 23. The signal intensity after subtraction of control signal in the assay with Reference peptide no. 24 came to 3290 AU; with Reference peptide no. 25, 5220 AU; in the assay with Reference peptide no. 26 it was 7510 AU; with Reference peptide no. 10 [5], 46000 AU; with Reference peptide no. 11 [6], 49700 AU; with Reference peptide no. 12 [7] it was 28800 AU. The signal intensity after subtraction of control signal with Reference peptide no. 13 [8] amounted to 5250 AU; with Reference peptide no. 42, 246 AU; with Reference peptide no. 43 it was 42800 AU; with Reference peptide no. 44, 5030 AU; in the assay with Reference peptide no. 45, 0 AU; with Reference peptide no. 47, 21400 AU. Moreover, the signal intensity after subtraction of control signal with Reference peptide no. 48 is 13400 AU; in the assay with Reference peptide no. 49, 3020 AU; with Reference peptide no. 52, 13100 AU; with Reference peptide no. 53 [9], 0 AU; in the assay with Reference peptide no. 54 [10], 0 AU. In the assay with murine IL-2 (mouse), this molecule yielded a response units (RU) greater than 10 RU. The dissociation constant (Kd) in assay [11] came to 9.7 nM. Also, in assay [11], the koff was 0.000494 s⁻¹. For the same molecule, the absorbance (OD450) in [12] worked out at 1.1 OD450.

B2: NARA1 (antibody, mouse IgG2a, kappa)
heavy: QVQLQQSGAELVRPGTSVKVSCKASGYAFTNYLIEWVKQRPGQGLEWIGVINPGSGGTNYNEKFKGKATLTADKSSSTAYMQLSSLTSDDSAVYFCARWRGDGYYAYFDVWGAGTTVTVSSAKTTAPSVYPLAPVCGDTTGSSVTLGCLVKGYFPEPVTLTWNSGSLSSGVHTFPAVLQSDLYTLSSSVTVTSSTWPSQSITCNVAHPASSTKVDKKIEPRGPTIKPCPPCKCPAPNLLGGPSVFIFPPKIKDVLMISLSPIVTCVVVDVSEDDPDVQISWFVNNVEVHTAQTQTHREDYNSTLRVVSALPIQHQDWMSGKEFKCKVNNKDLPAPIERTISKPKGSVRAPQVYVLPPPEEEMTKKQVTLTCMVTDFMPEDIYVEWTNNGKTELNYKNTEPVLDSDGSYFMYSKLRVEKKNWVERNSYSCSVVHEGLHNHHTTKSFSRTPGK
light: not shown
Take B2: the signal intensity after subtraction of control signal in the assay with Reference peptide no. 53 [13] came to 24 AU; in the assay with Reference peptide no. 54 [14] it was 0 AU.
